The text below walks through data of paper PMC11306251, “An integrative structural study of the human full-length RAD52 at 2.2 Å resolution” (Communications Biology, 2024).

Series [1] concerns the molecule itself. In words: MST; apparent; RED-NHS labelled FL-RAD52 constant at 10 nM, unlabelled FL-RAD52 0.7 nM-25 μM; 25 °C; 25 mM Hepes pH 7.5, 5% glycerol, 250 mM NaCl, 0.05% Tween 20; step of self-association not stated.
For series [2], the target named is T1, FL-RAD52 (Homo sapiens, UniProt P43351 1-418).
T1 sequence: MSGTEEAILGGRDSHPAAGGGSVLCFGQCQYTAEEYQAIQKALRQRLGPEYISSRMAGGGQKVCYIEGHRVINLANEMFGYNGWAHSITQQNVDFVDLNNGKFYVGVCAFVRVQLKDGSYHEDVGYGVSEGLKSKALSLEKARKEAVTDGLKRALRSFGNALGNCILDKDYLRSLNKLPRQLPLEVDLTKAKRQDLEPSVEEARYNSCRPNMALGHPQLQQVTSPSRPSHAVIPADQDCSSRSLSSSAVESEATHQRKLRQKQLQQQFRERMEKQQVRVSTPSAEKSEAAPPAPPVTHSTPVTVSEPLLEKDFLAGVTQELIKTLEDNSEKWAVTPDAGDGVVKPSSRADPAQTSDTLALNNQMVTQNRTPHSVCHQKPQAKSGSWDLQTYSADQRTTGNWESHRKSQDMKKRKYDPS
Kind of series: fluorescence polarization; apparent Kd; 10 nM DNA; FP: 25 mM Tris-HCl pH 7.5, 62.5 mM NaCl, 5% glycerol, 1 mM DTT, room temperature, 15 min. The following applies: protein: recombinant; tags: His-tag (pET15b); label: 5'-6-FAM; single strand. Background: Fluorescence polarisation rises when a labelled molecule tumbles more slowly, as on binding a larger partner.

B1: Human full-length RAD52 (FL-RAD52), 6xHis-tagged (natural protein, UniProt P43351 1-418, looked up)
chain: MSGTEEAILGGRDSHPAAGGGSVLCFGQCQYTAEEYQAIQKALRQRLGPEYISSRMAGGGQKVCYIEGHRVINLANEMFGYNGWAHSITQQNVDFVDLNNGKFYVGVCAFVRVQLKDGSYHEDVGYGVSEGLKSKALSLEKARKEAVTDGLKRALRSFGNALGNCILDKDYLRSLNKLPRQLPLEVDLTKAKRQDLEPSVEEARYNSCRPNMALGHPQLQQVTSPSRPSHAVIPADQDCSSRSLSSSAVESEATHQRKLRQKQLQQQFRERMEKQQVRVSTPSAEKSEAAPPAPPVTHSTPVTVSEPLLEKDFLAGVTQELIKTLEDNSEKWAVTPDAGDGVVKPSSRADPAQTSDTLALNNQMVTQNRTPHSVCHQKPQAKSGSWDLQTYSADQRTTGNWESHRKSQDMKKRKYDPS
notes: Human RAD52, full length, 418 amino acids (47 kDa); expression vector pET15b (Addgene, number not given); In the MST experiment the copy held at constant concentration was labelled with RED-NHS (amine dye NT-647-NHS); No tag cleavage is described; the SAXS deposit is named 'His-Tagged full-length'; also called DNA repair protein RAD52 homolog; source: E. coli BL21 (DE3) Rosetta pLysS, purified …
As for B1, the Kd in series [1] turned out to be 13 µM.

B2: dT30 ssDNA (ssDNA)
DNA: TTTTTTTTTTTTTTTTTTTTTTTTTTTTTT
In the case of B2, the Kd in series [2] stood at 0.0372 ± 0.0004 µM.
